# Source: patent US20180057604A1 (Genentech, published 2018)
# Read-outs that look alike come from different tables or passages of the source.
# T1: cyno TfR extracellular domain (analogous construct to human TfR ecd) (cynomolgus monkey, UniProt Q5RDH6 87-760 (Pongo abelii entry))
# T1 construct: also called cynoTfR ecd
# T1 chain: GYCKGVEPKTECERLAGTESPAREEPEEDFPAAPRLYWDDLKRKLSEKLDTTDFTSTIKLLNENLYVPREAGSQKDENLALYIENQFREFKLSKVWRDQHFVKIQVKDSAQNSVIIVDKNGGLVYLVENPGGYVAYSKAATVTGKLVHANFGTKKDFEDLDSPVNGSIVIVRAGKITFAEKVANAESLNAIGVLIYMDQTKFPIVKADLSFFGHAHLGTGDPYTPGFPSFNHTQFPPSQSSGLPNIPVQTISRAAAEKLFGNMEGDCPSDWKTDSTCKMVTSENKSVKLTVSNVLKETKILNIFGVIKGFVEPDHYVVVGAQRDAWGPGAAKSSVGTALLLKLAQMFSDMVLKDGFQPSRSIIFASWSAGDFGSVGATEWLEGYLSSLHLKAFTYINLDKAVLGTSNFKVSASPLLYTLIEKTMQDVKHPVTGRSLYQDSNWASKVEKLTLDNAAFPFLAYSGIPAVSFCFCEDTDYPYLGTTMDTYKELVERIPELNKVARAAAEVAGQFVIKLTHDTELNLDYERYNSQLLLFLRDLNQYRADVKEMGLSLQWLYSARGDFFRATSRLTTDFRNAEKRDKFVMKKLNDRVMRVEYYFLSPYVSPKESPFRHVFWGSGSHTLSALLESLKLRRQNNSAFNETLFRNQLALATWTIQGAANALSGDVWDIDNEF
# Legend:
# [1] = biological target: T2, human BACE1 ECD; assay: Octet, pH 5.0
# T2 construct: analyte of the Octet assay (200 nM) and enzyme of the first short substrate assay; also called human BACE1 extracellular domain
# [2] = biological target: T3, murine BACE1 ECD; assay: Octet, pH 5.0
# T3 construct: analyte of the Octet assay (200 nM) and enzyme of the first short substrate assay
# [3] = biological target: T2, human BACE1 ECD; assay: cell-based or functional assay
# [4] = biological target: T3, murine BACE1 ECD; assay: cell-based or functional assay
# [5] = biological target: T4, BACE1 in primary mouse cortical neurons (mouse, UniProt P56818 46-501); assay: cell-based or functional assay
# [6] = biological target: T5, human BACE1 (R&D Systems) (human, UniProt P56817); assay: SPR (Biacore)
# T5 construct: recombinant, commercial (R&D Systems)
# [7] = biological target: T2, human BACE1 ECD; assay: Octet, pH 5.0, second run
# [8] = biological target: T3, murine BACE1 ECD; assay: Octet, pH 5.0, second run
# [9] = biological target: T6, BACE1 (HTRF long substrate and FRET short substrate assays of Example 9D); assay: cell-based or functional assay
# [10] = biological target: T2, human BACE1 ECD; assay: Octet, pH 7.5, second run
# [11] = biological target: T3, murine BACE1 ECD; assay: Octet, pH 7.5, second run
# [12] = biological target: T2, human BACE1 ECD; assay: Octet, pH 7.5
# [13] = biological target: T3, murine BACE1 ECD; assay: Octet, pH 7.5
# [14] = biological target: T5, human BACE1 (R&D Systems); assay: SPR (Biacore), second run
# [15] = biological target: T2, human BACE1 ECD; assay: Octet, pH 7.5, second run; remark: listed apart in the source
# [16] = biological target: T3, murine BACE1 ECD; assay: Octet, pH 7.5, second run; remark: listed apart in the source
# [17] = biological target: T2, human BACE1 ECD; assay: Octet, pH 5.0, second run; remark: listed apart in the source
# [18] = biological target: T3, murine BACE1 ECD; assay: Octet, pH 5.0, second run; remark: listed apart in the source
# [19] = biological target: T5, human BACE1 (R&D Systems); assay: SPR (Biacore), second run; remark: listed apart in the source
# [20] = biological target: T5, human BACE1 (R&D Systems); assay: SPR (Biacore); remark: listed apart in the source
# [21] = biological target: T2, human BACE1 ECD; assay: Octet, pH 7.5; remark: listed apart in the source
# [22] = biological target: T3, murine BACE1 ECD; assay: Octet, pH 7.5; remark: listed apart in the source
# [23] = biological target: T4, BACE1 in primary mouse cortical neurons; assay: cell-based or functional assay; remark: listed apart in the source
# [24] = biological target: T2, human BACE1 ECD; assay: Octet, pH 5.0; remark: listed apart in the source
# [25] = biological target: T3, murine BACE1 ECD; assay: Octet, pH 5.0; remark: listed apart in the source
# [26] = biological target: T6, BACE1 (HTRF long substrate and FRET …); assay: cell-based or functional assay; remark: listed apart in the source
# [27] = biological target: T5, human BACE1 (R&D Systems); assay: SPR (Biacore); remark: listed apart in the source
# [28] = biological target: T2, human BACE1 ECD; assay: Octet, pH 5.0; remark: listed apart in the source
# [29] = biological target: T3, murine BACE1 ECD; assay: Octet, pH 5.0; remark: listed apart in the source
# [30] = biological target: T2, human BACE1 ECD; assay: Octet, pH 7.5; remark: listed apart in the source
# [31] = biological target: T3, murine BACE1 ECD; assay: Octet, pH 7.5; remark: listed apart in the source
# [32] = biological target: T1, cyno TfR extracellular domain …; assay: SPR SCK 1:1 fit, IgG
# [33] = biological target: T7, human TfR extracellular domain with N-terminal His tag (human, UniProt P02786 89-760); assay: SPR SCK 1:1 fit, IgG
# T7 construct: Biotinylated in some assays; also called huTfR; HuTfR
# [34] = biological target: T1, cyno TfR extracellular domain …; assay: SPR steady state, IgG
# [35] = biological target: T7, human TfR extracellular domain with …; assay: SPR steady state, IgG
# [36] = biological target: T1, cyno TfR extracellular domain …; assay: ELISA, IgG;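 further: ELISA of IgG-containing supernatants tested in 1:5 serial dilutions for 1 h, bound antibody read out with HRP anti-kappa antibody and TMB substrate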
# [37] = biological target: T7, human TfR extracellular domain with …; assay: ELISA, IgG;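 further: ELISA of IgG-containing supernatants tested in 1:5 serial dilutions for 1 h, bound antibody read out with HRP anti-kappa antibody and TMB substrate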
# T5 sequence (P56817 22-457 limits assumed): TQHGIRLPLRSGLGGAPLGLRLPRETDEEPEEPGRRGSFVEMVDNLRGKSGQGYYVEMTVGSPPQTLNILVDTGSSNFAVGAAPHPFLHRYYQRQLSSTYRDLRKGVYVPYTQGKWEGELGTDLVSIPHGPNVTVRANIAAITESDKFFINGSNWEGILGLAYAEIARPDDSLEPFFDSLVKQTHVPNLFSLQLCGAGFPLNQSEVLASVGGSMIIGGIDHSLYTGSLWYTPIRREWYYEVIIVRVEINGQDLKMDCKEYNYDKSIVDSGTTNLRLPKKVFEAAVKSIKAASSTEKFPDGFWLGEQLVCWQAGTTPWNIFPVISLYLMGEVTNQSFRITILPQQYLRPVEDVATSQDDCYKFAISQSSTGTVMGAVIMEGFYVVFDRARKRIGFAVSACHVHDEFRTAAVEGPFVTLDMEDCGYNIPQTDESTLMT
# T2 sequence (single chain, as listed by the source limits assumed): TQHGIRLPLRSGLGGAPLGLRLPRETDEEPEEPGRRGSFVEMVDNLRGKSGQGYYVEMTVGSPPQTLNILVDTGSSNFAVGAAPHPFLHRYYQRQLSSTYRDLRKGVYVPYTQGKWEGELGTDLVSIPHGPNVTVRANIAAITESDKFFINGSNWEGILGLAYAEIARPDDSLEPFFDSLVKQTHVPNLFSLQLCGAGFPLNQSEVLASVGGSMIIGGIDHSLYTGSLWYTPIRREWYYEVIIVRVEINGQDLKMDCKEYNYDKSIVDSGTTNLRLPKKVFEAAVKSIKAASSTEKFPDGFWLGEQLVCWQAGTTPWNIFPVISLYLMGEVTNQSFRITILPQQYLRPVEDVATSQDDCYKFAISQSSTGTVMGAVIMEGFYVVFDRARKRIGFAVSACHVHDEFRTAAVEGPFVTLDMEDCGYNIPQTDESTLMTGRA
# T4 sequence (P56818 46-501): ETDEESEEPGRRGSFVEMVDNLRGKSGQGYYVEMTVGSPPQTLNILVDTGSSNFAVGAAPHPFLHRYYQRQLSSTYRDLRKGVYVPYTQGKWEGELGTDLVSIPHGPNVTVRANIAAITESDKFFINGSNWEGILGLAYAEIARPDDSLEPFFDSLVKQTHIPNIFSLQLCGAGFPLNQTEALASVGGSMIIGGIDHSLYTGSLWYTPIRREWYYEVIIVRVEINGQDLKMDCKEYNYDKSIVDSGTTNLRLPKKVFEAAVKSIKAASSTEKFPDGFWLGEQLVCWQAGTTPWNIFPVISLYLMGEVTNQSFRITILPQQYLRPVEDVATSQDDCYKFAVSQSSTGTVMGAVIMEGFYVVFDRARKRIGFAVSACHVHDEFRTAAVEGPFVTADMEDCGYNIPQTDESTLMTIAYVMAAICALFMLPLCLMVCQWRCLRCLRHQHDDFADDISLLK
# T3 sequence (single chain, as listed by the source limits assumed): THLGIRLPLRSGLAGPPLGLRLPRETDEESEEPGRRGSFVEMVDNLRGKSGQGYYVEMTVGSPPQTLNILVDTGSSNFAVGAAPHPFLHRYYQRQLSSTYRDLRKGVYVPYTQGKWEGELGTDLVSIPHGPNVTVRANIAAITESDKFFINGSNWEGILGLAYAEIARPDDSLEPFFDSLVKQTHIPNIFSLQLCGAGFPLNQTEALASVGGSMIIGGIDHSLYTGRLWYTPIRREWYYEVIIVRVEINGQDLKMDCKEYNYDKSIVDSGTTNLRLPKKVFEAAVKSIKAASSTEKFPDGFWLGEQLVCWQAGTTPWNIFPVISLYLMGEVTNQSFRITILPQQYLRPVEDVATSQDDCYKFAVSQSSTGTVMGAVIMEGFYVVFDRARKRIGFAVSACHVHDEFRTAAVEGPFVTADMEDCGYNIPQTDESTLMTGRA
binder,measurement,setting,value
"5884 (antibody, V domains shown, anti-BACE1 IgG) VH: QVQLVQSGAEVKKPGSSVKVSCKASGGTFSGYGISWVRQAPGQGLEWMGNIIPGFGTANYAQKFQGRVTITADESTSTAYMELSSLRSEDTAVYYCARSGGTKYGMLDVWGQGTMVTVSS VL: EIVMTQSPATLSVSPGERATLSCRASQSVSSNLAWYQQKPGQAPRLLIYGASTRATGIPARFSGSGSGTEFTLTISSLQSEDFAVYYCQQLILWPPRTFGGGTKVEIK",Kd,[1],1.4 nM
same,Kd,[2],2 nM
same,"% inhibition of BACE1 activity, short FRET substrate",[3],-102%
same,"% inhibition of BACE1 activity, short FRET substrate",[4],-243%
same,"IC50, Abeta x-40 in mouse cortical neurons",[5],4.56 nM
same,"IC50, Abeta x-40 in mouse cortical neurons (5884*, second run)",[5],3.51 nM
same,maximal % inhibition of Abeta x-40,[5],83%
same,Kd,[6],2.62 nM
same,Kd,[7],0.86 nM
same,Kd,[8],1.3 nM
same,"EC50, FRET short substrate",[9],0.478 nM
same,"EC50, HTRF long substrate",[9],7.76 nM
same,Kd,[10],0.46 nM
same,Kd,[11],0.49 nM
same,Kd,[12],0.92 nM
same,Kd,[13],1.3 nM
same,Kd,[14],5.23 nM
"5887 (antibody, V domains shown, anti-BACE1 IgG) VH: QVQLVQSGAEVKKPGSSVKVSCKASGGTFRGYAISWVRQAPGQGLEWMGNIIPGFGTANYAQKFQGRVTITADESTSTAYMELSSLRSEDTAVYYCARSGGTKYGMLDVWGQGTMVTVSS VL: EIVMTQSPATLSVSPGERATLSCRASQSVSSNLAWYQQKPGQAPRLLIYGASTRATGIPARFSGSGSGTEFTLTISSLQSEDFAVYYCQQLILWPPRTFGGGTKVEIK",Kd,[15],0.45 nM
same,Kd,[16],0.54 nM
same,Kd,[1],2.2 nM
same,Kd,[2],2.3 nM
same,Kd,[17],1.4 nM
same,Kd,[18],1.8 nM
same,Kd,[19],7.08 nM
same,"% inhibition of BACE1 activity, short FRET substrate",[3],-102%
same,"% inhibition of BACE1 activity, short FRET substrate",[4],-230%
same,"IC50, Abeta x-40 in mouse cortical neurons",[5],1.74 nM
same,"IC50, Abeta x-40 in mouse cortical neurons (5887*, second run)",[5],2.53 nM
same,maximal % inhibition of Abeta x-40,[5],75%
same,Kd,[6],3.58 nM
same,"EC50, FRET short substrate",[9],0.482 nM
same,"EC50, HTRF long substrate",[9],5.5 nM
same,Kd,[12],1.1 nM
same,Kd,[13],1.4 nM
"6303 (antibody, V domains shown, anti-BACE1 IgG) VH: QVQLVQSGAEVKKPGSSVKVSCKASGGTLSGYAISWVRQAPGQGLEWMGNIIPGFGTANYAQKSQGRVTITADESTSTAYMELSSLRSEDTAVYYCARSGGTRYGMLDVWGQGTMVTVSS VL: EIVMTQSPATLSVSPGERATLSCRASQSVSSNLAWYQQKPGQAPRLLIFGASTRATGIPARFSGSGSGTEFTLTISSLQSEDFAVYYCQQLLTWPPRTFGGGTKVEIK",Kd,[20],3.09 nM
same,Kd,[21],< 0.32 nM
same,Kd,[22],< 0.35 nM
same,"IC50, Abeta x-40 in mouse cortical neurons",[23],4.1 nM
same,maximal % inhibition of Abeta x-40,[23],76%
same,Kd,[24],< 0.26 nM
same,Kd,[25],< 0.32 nM
"5896 (antibody, V domains shown, anti-BACE1 IgG) VH: QLQLQESGPGLVKPSETLSLTCTVSGGSISSSSYYWGWIRQPPGKGLEWIGSIYRSGSTYYNPSLKSRVTISVDTSKNQFSLKLSSVTAADTAVYYCARVGHGISYFDLWGRGTLVTVSS VL: EIVLTQSPATLSLSPGERATLSCRASQSVSSYLAWYQQKPGQAPRLLIYDASNRATGIPARFSGSGSGTDFTLTISSLEPEDFAVYYCQQSLTWPPRTFGGGTKVEIK",Kd,[15],0.71 nM
same,Kd,[16],0.8 nM
same,Kd,[17],1.1 nM
same,Kd,[18],1 nM
same,Kd,[19],5.18 nM
same,"% inhibition of BACE1 activity, short FRET substrate",[3],-4%
same,"% inhibition of BACE1 activity, short FRET substrate",[4],-3%
same,"IC50, Abeta x-40 in mouse cortical neurons",[5],2.7 nM
same,"IC50, Abeta x-40 in mouse cortical neurons (5896*, second run)",[5],5.72 nM
same,maximal % inhibition of Abeta x-40,[5],65%
same,"EC50, FRET short substrate",[26],3.35 nM
same,"EC50, HTRF long substrate",[26],3.46 nM
same,Kd,[27],3.4 nM
same,Kd,[28],3 nM
same,Kd,[29],3.1 nM
same,Kd,[30],1.9 nM
same,Kd,[31],2.9 nM
"6310 (antibody, V domains shown, anti-BACE1 IgG) VH: QLQLQESGPGLVKPSETLSLTCTVSGGSISWSSYYWSWIRQPPGKGLEWIGSIYRSGRTYYNPSLKSRVTISVDTSKNQFSLKLSSVTAADTAVYYCARVGHGINYFDLWGRGTLVTVSS VL: EIVLTQSPATLSLSPGERATLSCRASQSVSSYLAWYQQKPGQAPRLLIYDASNRATGIPARFSGSGSGTDFTLTISSLEPEDFAVYYCQQSVTWPPRTFGGGTKVEIK",Kd,[20],1.63 nM
same,Kd,[21],0.46 nM
same,Kd,[22],0.47 nM
same,"IC50, Abeta x-40 in mouse cortical neurons",[23],0.17 nM
same,maximal % inhibition of Abeta x-40,[23],71%
same,Kd,[24],0.44 nM
same,Kd,[25],0.5 nM
"N99A (antibody, V domains shown, also called 7A4.v15 N99A (CDR-H3) IgG; copies: 2 + 2) VH: EVQLVQSGAEVKKPGASVKVSCKGSGYTFTDYAMHWVRQAPGQGLEWMGGISTYFGRTNYNQKFKGRVTMTVDTSISTAYMELSRLRSDDTAVYYCARGLSGAYVMDYWGQGTTVTVSS VL: DIVMTQSPDSLAVSLGERATINCRASESVDSYGNSFMHWYQQKPGQPPKLLIYRASNLESGVPDRFSGSGSRTDFTLTISSLQAEDVAVYYCQQSNEAPPTFGQGTKLEIK",Kd,[32],22 nM
same,Kd,[33],11 nM
same,Kd,[34],77 nM
same,Kd,[35],19 nM
same,EC50,[36],0.0822 µg/mL
same,EC50,[37],0.017 µg/mL
"Q90A (antibody, V domains shown, also called 7A4.v15 Q90A (CDR-L3) IgG) VH: EVQLVQSGAEVKKPGASVKVSCKGSGYTFTDYAMHWVRQAPGQGLEWMGGISTYFGRTNYNQKFKGRVTMTVDTSISTAYMELSRLRSDDTAVYYCARGLSGNYVMDYWGQGTTVTVSS VL: DIVMTQSPDSLAVSLGERATINCRASESVDSYGNSFMHWYQQKPGQPPKLLIYRASNLESGVPDRFSGSGSRTDFTLTISSLQAEDVAVYYCQASNEAPPTFGQGTKLEIK",Kd,[32],570 nM
same,Kd,[33],16 nM
same,Kd,[34],329 nM
same,Kd,[35],41 nM
same,EC50,[36],0.181 µg/mL
same,EC50,[37],0.0093 µg/mL
